Measured values as given in article PMC11347170, “Staphylococcal exoribonuclease YhaM destabilizes ribosomes by targeting the mRNA of a hibernation factor”.
“And” between values parts separate entries of the source, which are not always exact repeats. Equal values may be shown once.

Columns and labels:
[1] = molecular target: His6-YhaM^WT, recombinant wild-type S. aureus 3'-5' exoribonuclease YhaM (Staphylococcus aureus USA300 JE2); experiment: SEC; 60 uM YhaM on HiPrep 16/60 Sephacryl S-100 HR, buffer B (40 mM HEPES pH 7.5, 0.5 M KCl, 10% glycerol); size by gel filtration standard
[2] = molecular target: His6-YhaM^WT, recombinant wild-type S. aureus 3'-5' exoribonuclease YhaM (Staphylococcus aureus USA300 JE2); experiment: mass photometry; TwoMP mass photometer, 30 nM protein, 50 mM Na-Tricine pH 8.0, 100 mM KCl without metal or with 1 mM MnSO4, MgSO4 or CoSO4
[3] = molecular target: YhaM^WT expressed in the S. aureus ΔyhaM mutant from a plasmid under its native promoter (Staphylococcus aureus USA300 JE2); experiment: cross-linking; in vivo, S. aureus ΔyhaM cells carrying pYhaM^WT (OD600 0.8), 1 mM glutaraldehyde for 1-2 h at room temperature, Western blot with anti-YhaM

Row | stoichiometry N [1] | percent of particles in a hexameric state with Mn(II) [2] [%] | stoichiometry N [2] | Substance | stoichiometry N [3]
1 | 6 | 80 | 2 and 6 | His6-YhaM^WT, recombinant wild-type S. aureus 3'-5' exoribonuclease YhaM (enzyme) | –
2 | – | – | – | YhaM^WT expressed in the S. aureus ΔyhaM mutant from a plasmid under its native promoter (enzyme) | 6 and 2 and 4
